First the molecules themselves.
B1: Protein S100-G, residues 1 to 79; numbered along this chain, P02633 (parent)
chain: MSAKKSPEELKGIFEKYAAKEGDPNQLSKEELKLLLQTEFPSLLKGPSTLDELFEELDKNGDGEVSFEEFQVLVKKISQ

± gives the uncertainty stated by the source.

This series covers variants of B1. The experiment in a line: abundance fitness (aPCA) (normalised: wild type 0, dead -1); higher = more abundant; growth selection in yeast, the domain comes from the species named. To be noted: Bos taurus.
In the case of MSAKKSPEELKGIFEKYAAKEGDPNQLSKEELKLLLQTEFPVLLKGPSTLDELFEELDKNGDGEVSFEEFQVLVKKISQ [S42V], the abundance fitness is -0.058 ± 0.071.

As for MSAKKSPEELKGIFEKYAAKEGDPNQLSKEELKLLLQTEFPELLKGPSTLDELFEELDKNGDGEVSFEEFQVLVKKISQ [S42E], the abundance fitness was 0.116 ± 0.089.

On to MSAKKSPEELKGIFEKYAAKEGDPNQLSKEELKLLLQTEFPKLLKGPSTLDELFEELDKNGDGEVSFEEFQVLVKKISQ [S42K], for which the abundance fitness stood at 0.061 ± 0.081.

MSAKKSPEELKGIFEKYAAKEGDPNQLSKEELKLLLQTEFPWLLKGPSTLDELFEELDKNGDGEVSFEEFQVLVKKISQ [S42W]: the abundance fitness is -0.098 ± 0.085.

Turning to MSAKKSPEELKGIFEKYAAKEGDPNQLSKEELKLLLQTEFPFLLKGPSTLDELFEELDKNGDGEVSFEEFQVLVKKISQ [S42F], the abundance fitness was -0.049 ± 0.081.

On to MSAKKSPEELKGIFEKYAAKEGDPNQLSKEELKLLLQTEFPGLLKGPSTLDELFEELDKNGDGEVSFEEFQVLVKKISQ [S42G], for which the abundance fitness is -0.023 ± 0.075.

With MSAKKSPEELKGIFEKYAAKEGDPNQLSKEELKLLLQTEFPCLLKGPSTLDELFEELDKNGDGEVSFEEFQVLVKKISQ [S42C], the abundance fitness is -0.074 ± 0.086.

For MSAKKSPEELKGIFEKYAAKEGDPNQLSKEELKLLLQTEFPALLKGPSTLDELFEELDKNGDGEVSFEEFQVLVKKISQ [S42A], the abundance fitness was -0.011 ± 0.072.

Turning to MSAKKSPEELKGIFEKYAAKEGDPNQLSKEELKLLLQTEFPYLLKGPSTLDELFEELDKNGDGEVSFEEFQVLVKKISQ [S42Y], the abundance fitness was -0.047 ± 0.08.

With MSAKKSPEELKGIFEKYAAKEGDPNQLSKEELKLLLQTEFPRLLKGPSTLDELFEELDKNGDGEVSFEEFQVLVKKISQ [S42R], the abundance fitness is -0.056 ± 0.069.

On to MSAKKSPEELKGIFEKYAAKEGDPNQLSKEELKLLLQTEFPDLLKGPSTLDELFEELDKNGDGEVSFEEFQVLVKKISQ [S42D], for which the abundance fitness is -0.046 ± 0.086.

On to MSAKKSPEELKGIFEKYAAKEGDPNQLSKEELKLLLQTEFPHLLKGPSTLDELFEELDKNGDGEVSFEEFQVLVKKISQ [S42H], for which the abundance fitness was -0.087 ± 0.085.

As for MSAKKSPEELKGIFEKYAAKEGDPNQLSKEELKLLLQTEFPMLLKGPSTLDELFEELDKNGDGEVSFEEFQVLVKKISQ [S42M], the abundance fitness was -0.07 ± 0.081.

In the case of MSAKKSPEELKGIFEKYAAKEGDPNQLSKEELKLLLQTEFPILLKGPSTLDELFEELDKNGDGEVSFEEFQVLVKKISQ [S42I], the abundance fitness was -0.035 ± 0.083.

For the variant MSAKKSPEELKGIFEKYAAKEGDPNQLSKEELKLLLQTEFPPLLKGPSTLDELFEELDKNGDGEVSFEEFQVLVKKISQ [S42P], the abundance fitness worked out at 0.008 ± 0.075.

In the case of MSAKKSPEELKGIFEKYAAKEGDPNQLSKEELKLLLQTEFPNLLKGPSTLDELFEELDKNGDGEVSFEEFQVLVKKISQ [S42N], the abundance fitness is -0.009 ± 0.083.

On to MSAKKSPEELKGIFEKYAAKEGDPNQLSKEELKLLLQTEFPTLLKGPSTLDELFEELDKNGDGEVSFEEFQVLVKKISQ [S42T], for which the abundance fitness is 0.084 ± 0.073.

Regarding MSAKKSPEELKGIFEKYAAKEGDPNQLSKEELKLLLQTEWPSLLKGPSTLDELFEELDKNGDGEVSFEEFQVLVKKISQ [F40W], the abundance fitness was determined as 0.008 ± 0.095.

Take MSAKKSPEELKGIFEKYAAKEGDPNQLSKEELKLLLQTEQPSLLKGPSTLDELFEELDKNGDGEVSFEEFQVLVKKISQ [F40Q]: the abundance fitness was -0.178 ± 0.081.

MSAKKSPEELKGIFEKYAAKEGDPNQLSKEELKLLLQTETPSLLKGPSTLDELFEELDKNGDGEVSFEEFQVLVKKISQ [F40T]: the abundance fitness was -0.106 ± 0.072.

As for MSAKKSPEELKGIFEKYAAKEGDPNQLSKEELKLLLQTESPSLLKGPSTLDELFEELDKNGDGEVSFEEFQVLVKKISQ [F40S], the abundance fitness was -0.16 ± 0.064.

Consider MSAKKSPEELKGIFEKYAAKEGDPNQLSKEELKLLLQTEPPSLLKGPSTLDELFEELDKNGDGEVSFEEFQVLVKKISQ [F40P], for which the abundance fitness is -0.889 ± 0.079.

Regarding MSAKKSPEELKGIFEKYAAKEGDPNQLSKEELKLLLQTELPSLLKGPSTLDELFEELDKNGDGEVSFEEFQVLVKKISQ [F40L], the abundance fitness was -0.037 ± 0.062.

Consider MSAKKSPEELKGIFEKYAAKEGDPNQLSKEELKLLLQTEVPSLLKGPSTLDELFEELDKNGDGEVSFEEFQVLVKKISQ [F40V], for which the abundance fitness is -0.065 ± 0.072.

As for MSAKKSPEELKGIFEKYAAKEGDPNQLSKEELKLLLQTEMPSLLKGPSTLDELFEELDKNGDGEVSFEEFQVLVKKISQ [F40M], the abundance fitness stood at 0.047 ± 0.081.

MSAKKSPEELKGIFEKYAAKEGDPNQLSKEELKLLLQTENPSLLKGPSTLDELFEELDKNGDGEVSFEEFQVLVKKISQ [F40N]: the abundance fitness was -0.084 ± 0.077.

Take MSAKKSPEELKGIFEKYAAKEGDPNQLSKEELKLLLQTEYPSLLKGPSTLDELFEELDKNGDGEVSFEEFQVLVKKISQ [F40Y]: the abundance fitness was -0.011 ± 0.074.

With MSAKKSPEELKGIFEKYAAKEGDPNQLSKEELKLLLQTEFKSLLKGPSTLDELFEELDKNGDGEVSFEEFQVLVKKISQ [P41K], the abundance fitness came out at 0.017 ± 0.087.

Regarding MSAKKSPEELKGIFEKYAAKEGDPNQLSKEELKLLLQTEFWSLLKGPSTLDELFEELDKNGDGEVSFEEFQVLVKKISQ [P41W], the abundance fitness was -0.115 ± 0.085.

MSAKKSPEELKGIFEKYAAKEGDPNQLSKEELKLLLQTEFSSLLKGPSTLDELFEELDKNGDGEVSFEEFQVLVKKISQ [P41S]: the abundance fitness is 0.055 ± 0.068.

Take MSAKKSPEELKGIFEKYAAKEGDPNQLSKEELKLLLQTEFGSLLKGPSTLDELFEELDKNGDGEVSFEEFQVLVKKISQ [P41G]: the abundance fitness turned out to be 0.002 ± 0.072.

For the variant MSAKKSPEELKGIFEKYAAKEGDPNQLSKEELKLLLQTEFCSLLKGPSTLDELFEELDKNGDGEVSFEEFQVLVKKISQ [P41C], the abundance fitness is -0.159 ± 0.094.

On to MSAKKSPEELKGIFEKYAAKEGDPNQLSKEELKLLLQTEFESLLKGPSTLDELFEELDKNGDGEVSFEEFQVLVKKISQ [P41E], for which the abundance fitness is -0.191 ± 0.091.

Take MSAKKSPEELKGIFEKYAAKEGDPNQLSKEELKLLLQTEFQSLLKGPSTLDELFEELDKNGDGEVSFEEFQVLVKKISQ [P41Q]: the abundance fitness came out at 0.025 ± 0.086.
